Laboratory results published in patent publication US20170066801A1, “ALPHA3BETA HYDROGEN BOND SURROGATE MACROCYCLES AS MODULATORS OF RAS” (NEW YORK UNIVERSITY, priority 2014, published 2017).
Non-standard residues stand in square brackets, D forms with d. Residues, ends and D or L forms follow the SMILES beside them. No end group written: not given here. β3hI = CC[C@H](C)[C@H](N)CC(=O)O; β3hE = N[C@@H](CCC(=O)O)CC(=O)O; β3hA = C[C@H](N)CC(=O)O; Flu = fluorescein

Experiments:
HRas^(1-166) = biological target: T1, HRas^(1-166) (Homo sapiens, UniProt P01112); assay: In vitro pulldown binding assay with 6×His-tagged HRas 1-166 and fluorescein-tagged SOS peptides; conditions: fluorescein-tagged peptides, 4° C., 1 hour
T1 construct: 6×His-tagged HRas WT 1-166; made in house
Experimental: Recombinantly purified 6×His-tagged HRas WT 1-166 was incubated with Ni-NTA sepharose beads, generating recombinant Ras on solid support. FITC labeled HBS peptides were incubated in the presence of recombinant HRas-6×His/Ni-NTA Sepharose complex at 4° C. for 1 hour. Beads complexes were pelleted and washed 5× with protein buffer (20 mM Tris-HCl pH 7.6, 50 mM NaCl, 4 mM EDTA, 10 mM MgCl2), resuspended in reducing buffer (126 mM Tris-HCL pH 6.8, 20% glycerol, 4% SDS, 0.02% bromophenol blue, 2.5% β-mercaptoethanol), boiled for 10 minutes at 95° C., and subjected to SDS-PAGE with an acrylamide percentage of 20% to allow for sufficient resolution of the HBS helices. SDS-PAGE gels were imaged using an ImageQuant™ LAS 4000 biomolecular imager (GE Healthcare, Piscataway, N.J., USA). Quantification of fluorescence by FITC-HBS helices in gel was determined by manufacturer provided ImageQuant™ TL software. Raw values were normalized to total input and plotted on a semilog graph with GraphPad Prism version 6.00 for OSX (GraphPad Software, La Jolla Calif. USA, www.graphpad.com).
The binding affinity of the designed compounds for Ras was determined using in vitro pulldown assays with recombinantly purified 6×His-tagged HRas^(1-166) and fluorescein-tagged SOS peptides (FIGS. 8 and 9, and Table 2). […]

[1] = biological target: 6×His-tagged HRas WT 1-166 (UniProt P01112); assay: in vitro pull-down: fluorescein-tagged peptide on 6×His-HRas 1-166 / Ni-NTA beads, in-gel fluorescence

Molecule: CC[C@H](C)[C@@H](CC(=O)N[C@@H](Cc1ccc(O)cc1)C(=O)N[C@@H](CCCNC(=N)N)C(=O)N[C@@H](CC(C)C)C(=O)N[C@@H](CCC(=O)O)CC(=O)N[C@@H](CC(C)C)C(=O)N[C@@H](CC(C)C)C(=O)N[C@@H](CCCCN)C(=O)N[C@@H](C)CC(=O)N[C@@H](CCC(=O)O)C(=O)N[C@@H](CCC(=O)O)C(=O)N[C@@H](C)C(=O)N[C@@H](CC(N)=O)C(N)=O)NC(=O)CNC(=O)[C@H](CCC(=O)O)NC(=O)[C@H](Cc1ccccc1)NC(C)=O [α3β-UNCSOS, Ac-FEGiYRLeLLKaEEAN-NH2] (Ac-FEG[β3hI]YRL[β3hE]LLK[β3hA]EEAN-NH2)
- Kd (HRas^(1-166)): 30.6 ± 12 µM

B1: α-HBSSOS (fluorescein-tagged) (peptide)
peptide: FEGIYRLELLKAEEAN
modifications: not fully specified; also: hydrogen bond surrogate macrocycle at N-terminus, fluorescein tag, site and linker not given here
- Kd [1]: 7.75 µM

B2: α3β-UNCSOS-Flu (peptide)
peptide: Ac-FEG[β3hI]YRL[β3hE]LLK[β3hA]EEANK(Flu)-NH2
modifications: not fully specified (residue 3); printed as Ac-FEG*iYRLeLLKaEEANK(Flu)-NH2
- fold weaker affinity than α3β-HBSSOS [1]: 136 fold
